From patent US20220033450A1, “VIRALLY EXPRESSED INHIBITORS OF PDZ DOMAINS, SUCH AS PICK1 AND USES THEREOF” (University of Copenhagen, priority 2018, published 2022)

Target: Protein Interacting with C Kinase-1 (PICK1), Q9EP80
Assay: FP competition, PICK1 0.15 µM, tracer PEG4 linked dimeric C5 20 nM

Protein Interacting with C Kinase-1 (PICK1), Q9EP80, sequence (Q9EP80 whole entry): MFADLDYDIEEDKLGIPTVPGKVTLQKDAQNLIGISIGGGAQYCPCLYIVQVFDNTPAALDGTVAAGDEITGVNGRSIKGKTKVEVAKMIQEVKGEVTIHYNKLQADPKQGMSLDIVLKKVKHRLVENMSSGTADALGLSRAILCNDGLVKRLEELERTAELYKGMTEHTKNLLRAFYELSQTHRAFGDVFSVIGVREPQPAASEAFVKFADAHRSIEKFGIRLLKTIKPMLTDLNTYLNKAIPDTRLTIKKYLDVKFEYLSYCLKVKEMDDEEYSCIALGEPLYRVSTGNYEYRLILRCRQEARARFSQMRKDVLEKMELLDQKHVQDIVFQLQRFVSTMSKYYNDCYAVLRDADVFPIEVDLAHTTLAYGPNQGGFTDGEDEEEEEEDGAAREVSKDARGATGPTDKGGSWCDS

fold increase in affinity over DATC5: 16 fold
Binder: GEELLEDIRKFNEMRKNMDQLKEKINSVLSIRQGGGGSHWLKV (designed binder, modifications not checked) [SSO10a-GS4-HWLKV]
